Reference: patent US20230324404A1 (Takeda / Millennium, published 2023)

Legend:
[1] = molecular target: rZIKV-EDIII-1 (recombinant 6xHis-SUMO-tagged ZIKV EDIII) (Zika virus strain H/PF/2013, UniProt A0A024B7W1 589-697); assay: Bio-layer interferometry (Octet)
[2] = molecular target: T1, DENV3 VLP (strain Sri Lanka D3/H/IMTSSA-SRI/2000/1266) (Dengue virus serotype 3 strain Sri …); assay: microsphere immunoassay, DENV3 VLP-coupled microspheres
T1 construct: also called dengue-3 virus like particle

[3] = molecular target: T2, DENV2 VLP (strain Thailand/16681/84) (Dengue virus serotype 2 strain …); assay: microsphere immunoassay, DENV2 VLP-coupled microspheres
T2 construct: also called dengue-2 virus like particle

[4] = molecular target: T3, DENV4 VLP (strain Dominica/814669/1981) (Dengue virus serotype 4 strain …, UniProt P09866 114-732); assay: microsphere immunoassay, DENV4 VLP-coupled microspheres
T3 construct: also called dengue-4 virus like particle

[5] = molecular target: T4, DENV1 VLP (strain Puerto Rico/US/BID-V853/1998) (Dengue virus serotype 1 strain Puerto …); assay: microsphere immunoassay, DENV1 VLP-coupled microspheres
T4 construct: also called dengue-1 virus like particle

[6] = molecular target: T1, DENV3 VLP (strain Sri Lanka …); assay: microsphere immunoassay, DENV3 VLP-coupled microspheres, 120 min incubation
[7] = molecular target: T5, ZIKV VLP (zika virus like particle, isolate Z1106033) (Zika virus isolate Z1106033 (Suriname, …, UniProt A0A024B7W1 123-794))
T5 construct: also called zika VLP; ZIKV VLPs

[8] = molecular target: T3, DENV4 VLP (strain Dominica/814669/1981); assay: microsphere immunoassay, DENV4 VLP-coupled microspheres, 120 min incubation
[9] = molecular target: T2, DENV2 VLP (strain Thailand/16681/84); assay: microsphere immunoassay, DENV2 VLP-coupled microspheres, 120 min incubation
[10] = molecular target: T4, DENV1 VLP (strain Puerto …); assay: microsphere immunoassay, DENV1 VLP-coupled microspheres, 120 min incubation

Binder | binding result [1] | binding result [2] | binding result [3] | binding result [4] | binding result [5] | binding result [6] | EC25 [7] [ng/mL] | EC50 [7] [ng/mL] | binding result [8] | binding result [9] | binding result [10]
Anti-ZIKV #4 (Clone 289-3) (antibody, V domains shown) VH: QEELEESGGDLVKPGASLTLTCKASGFSFSSGAYICWVRQAPGKGPEWIACIYTGDGRTYYANWAKRRFTISSSSSTTVALEMPSLTDADTATYFCARAIAVGAGYGVGNYFTLWGPGTLVTVSS VL: DIVMTQTPSSVSAAVGGTVTINCHASENIYGYLSWYQQKPGQPPKLLIYKASTLASGVPSRFKGSGAGTQFTLTITALECADAATYYCQSYYTSSSNADGSENAFGGGTEVVVEG | binds | no binding (tested: 0.001 to 20 µg/mL) | no binding (tested: 0.001 to 20 µg/mL) | no binding (tested: 0.001 to 20 µg/mL) | no binding (tested: 0.001 to 20 µg/mL) |  |  |  |  |  | 
Anti-ZIKV #11 (Clone 11-3) (antibody, V domains shown) VH: QEQLVESGGGLVQPEGSLTITCTGSGFSFSSRFYMCWVRQAPGKGLEWIACIYGGSSGSTYYASWAKGRFTISKTSSTTVTLQISSLTAADTATYFCARGGSTAAAGFNLWGPGTLLTVSS VL: DVVMTQTPASVSATVGGTVTIKCQASEDIYNLLAWYQQKPGQPPKLLIYYASTLASGVPSRFKGSGSGTEFTLTISDLECADAATYYCQCNDYGGTYVPNAFGGGTEVVVKG |  |  |  |  |  | no binding (tested: 0.001 to 20 µg/mL) | 3.2 | 10.5 | no binding (tested: 0.001 to 20 µg/mL) | no binding (tested: 0.001 to 20 µg/mL) | no binding (tested: 0.001 to 20 µg/mL)
